Test results as given in the supplement of paper PMC11246515.
± gives the standard deviation of the averaged measurements.

Assay: total protein half-life in vivo (active degradation + dilution); higher = more stable protein
[1] = E. coli NCM3722 delta-clpP delta-lon delta-hslV, growth: N-lim chemostat, doubling time 6 h
[2] = E. coli NCM3722 delta-clpP, growth: N-lim chemostat, doubling time 6 h
[3] = E. coli NCM3722 delta-hslV, growth: N-lim chemostat, doubling time 6 h
[4] = E. coli NCM3722 delta-lon, growth: N-lim chemostat, doubling time 6 h
[5] = E. coli NCM3722 delta-smpB, growth: N-lim chemostat, doubling time 6 h
[6] = wild type E. coli NCM3722, growth: C-lim chemostat, doubling time 3 h
[7] = wild type E. coli NCM3722, growth: C-lim chemostat, doubling time 6 h
[8] = wild type E. coli NCM3722, growth: C-lim chemostat, doubling time 12 h
[9] = wild type E. coli NCM3722, growth: N-lim chemostat, doubling time 6 h
[10] = wild type E. coli NCM3722, growth: N-lim chemostat, doubling time 12 h
[11] = wild type E. coli NCM3722, growth: P-lim chemostat, doubling time 6 h
[12] = wild type E. coli NCM3722, growth: P-lim chemostat, doubling time 12 h

| Sequence | total protein half-life in vivo [1] | total protein half-life in vivo [2] | total protein half-life in vivo [3] | total protein half-life in vivo [4] | total protein half-life in vivo [5] | total protein half-life in vivo [6] | total protein half-life in vivo [7] | total protein half-life in vivo [8] | total protein half-life in vivo [9] | total protein half-life in vivo [10] | total protein half-life in vivo [11] | total protein half-life in vivo [12] |
| --- | --- | --- | --- | --- | --- | --- | --- | --- | --- | --- | --- | --- |
| MRVLIVKTSSMGDVLHTLPALTDAQQAIPGIKFDWVVEEGFAQIPSWHAAVERVIPVAIRRWRKAWFSAPIKAERKAFREALQAENYDAVIDAQGLVKSAALVTRLAHGVKHGMDWQTAREPLASLFYNRKHHIAKQQHAVERTRELFAKSLGYSKPQTQGDYAIAQHFLTNLPTDAGEYAVFLHATTRDDKHWPEEHWRELIGLLADSGIRIKLPWGAPHEEERAKRLAEGFAYVEVLPKMSLEGVARVLAGAKFVVSVDTGLSHLTAALDRPNITVYGPTDPGLIGGYGKNQMVCRAPRENLINLNSQAVLEKLSSL | 5.54 ± 0.21 h | 5.02 ± 0.34 h | 5.1 h | 5.08 ± 0.063 h | 5.74 ± 1.2 h | 2.76 ± 0.13 h | 5.73 ± 0.28 h | 13.2 ± 2.2 h | 5.72 ± 0.27 h | 11.5 ± 2.6 h | 5.23 ± 0.16 h | 10.63 ± 0.039 h |
| MADEIDAMALYRAWQQLDNGSCAQIRRVSEPDELRDIPAFYRLVQPFGWENPRHQQALLRMVFCLSAGKNVIRHQDKKSEQTTGISLGRALANSGRINERRIFQLIRADRTADMVQLRRLLTHAEPVLDWPLMARMLTWWGKRERQQLLEDFVLTTNKNA | 5.62 ± 1.1 h |  |  |  |  |  |  |  |  |  |  |  |
| MPKKNEAPASFEKALSELEQIVTRLESGDLPLEEALNEFERGVQLARQGQAKLQQAEQRVQILLSDNEDASLTPFTPDNE [P0A8G9] | 7.56 h | 5.9 h | 6.62 h |  |  |  | 6.16 ± 0.35 h | 14.4 h | 5.09 ± 0.59 h |  | 4.86 ± 0.049 h | 14.2 ± 1.7 h |
| MTDYAISKKSKRSLWIPILVFITLAACASAGYSYWHSHQVAADDKAQQRVVPSPVFYALDTFTVNLGDADRVLYIGITLRLKDEATRSRLSEYLPEVRSRLLLLFSRQDAAVLATEEGKKNLIAEIKTTLSTPLVAGQPKQDVTDVLYTAFILR [P0ABX8] |  |  |  |  |  | 1.72 ± 0.4 h | 2.16 ± 0.27 h | 3 ± 0.22 h |  |  |  |  |
| MKTLIRKFSRTAITVVLVILAFIAIFNAWVYYTESPWTRDARFSADVVAIAPDVSGLITQVNVHDNQLVKKGQILFTIDQPRYQKALEEAQADVAYYQVLAQEKRQEAGRRNRLGVQAMSREEIDQANNVLQTVLHQLAKAQATRDLAKLDLERTVIRAPADGWVTNLNVYTGEFITRGSTAVALVKQNSFYVLAYMEETKLEGVRPGYRAEITPLGSNKVLKGTVDSVAAGVTNASSTRDDKGMATIDSNLEWVRLAQRVPVRIRLDNQQENIWPAGTTATVVVTGKQDRDESQDSFFRKMAHRLREFG |  | 5.51 h |  |  |  |  |  |  |  |  |  |  |
| MLQISHLYADYGGKPALEDINLTLESGELLVVLGPSGCGKTTLLNLIAGFVPYQHGSIQLAGKRIEGPGAERGVVFQNEGLLPWRNVQDNVAFGLQLAGIEKMQRLEIAHQMLKKVGLEGAEKRYIWQLSGGQRQRVGIARALAANPQLLLLDEPFGALDAFTRDQMQTLLLKLWQETGKQVLLITHDIEEAVFMATELVLLSSGPGRVLERLPLNFARRFVAGESSRSIKSDPQFIAMREYVLSRVFEQREAFS | 4.76 h |  |  |  |  |  |  |  |  |  |  |  |
| MNIIAIMGPHGVFYKDEPIKELESALVAQGFQIIWPQNSVDLLKFIEHNPRICGVIFDWDEYSLDLCSDINQLNEYLPLYAFINTHSTMDVSVQDMRMALWFFEYALGQAEDIAIRMRQYTDEYLDNITPPFTKALFTYVKERKYTFCTPGHMGGTAYQKSPVGCLFYDFFGGNTLKADVSISVTELGSLLDHTGPHLEAEEYIARTFGAEQSYIVTNGTSTSNKIVGMYAAPSGSTLLIDRNCHKSLAHLLMMNDVVPVWLKPTRNALGILGGIPRREFTRDSIEEKVAATTQAQWPVHAVITNSTYDGLLYNTDWIKQTLDVPSIHFDSAWVPYTHFHPIYQGKSGMSGERVAGKVIFETQSTHKMLAALSQASLIHIKGEYDEEAFNEAFMMHTTTSPSYPIVASVETAAAMLRGNPGKRLINRSVERALHFRKEVQRLREESDGWFFDIWQPPQVDEAECWPVAPGEQWHGFNDADADHMFLDPVKVTILTPGMDEQGNMSEEGIPAALVAKFLDERGIVVEKTGPYNLLFLFSIGIDKTKAMGLLRGLTEFKRSYDLNLRIKNMLPDLYAEDPDFYRNMRIQDLAQGIHKLIRKHDLPGLMLRAFDTLPEMIMTPHQAWQRQIKGEVETIALEQLVGRVSANMILPYPPGVPLLMPGEMLTKESRTVLDFLLMLCSVGQHYPGFETDIHGAKQDEDGVYRVRVLKMAG |  | 5.56 ± 0.19 h | 5.32 ± 0.2 h | 5.36 ± 0.26 h | 5.38 ± 0.089 h | 3.21 ± 0.1 h | 7.21 ± 0.98 h | 10.7 ± 3.7 h | 6.16 ± 1.5 h | 10.7 ± 0.83 h | 6.88 ± 1.5 h | 11.92 ± 0.053 h |
| MPLRRFSPGLKAQFAFGMVFLFVQPDASAADISAQQIGGVIIPQAFSQALQDGMSVPLYIHLAGSQGRQDDQRIGSAFIWLDDGQLRIRKIQLEESEDNASVSEQTRQQLMALANAPFNEALTIPLTDNAQLDLSLRQLLLQLVVKREALGTVLRSRSEDIGQSSVNTLSSNLSYNLGVYNNQLRNGGSNTSSYLSLNNVTALREHHVVLDGSLYGIGSGQQDSELYKAMYERDFAGHRFAGGMLDTWNLQSLGPMTAISAGKIYGLSWGNQASSTIFDSSQSATPVIAFLPAAGEVHLTRDGRLLSVQNFTMGNHEVDTRGLPYGIYDVEVEVIVNGRVISKRTQRVNKLFSRGRGVGAPLAWQVWGGSFHMDRWSENGKKTRPAKESWLAGASTSGSLSTLSWAATGYGYDNQAVGETRLTLPLGGAINVNLQNMLASDSSWSSIGSISATLPGGFSSLWVNQEKTRIGNQLRRSDADNRAIGGTLNLNSLWSKLGTFSISYNDDRRYNSHYYTADYYQNVYSGTFGSLGLRAGIQRYNNGDSNANTGKYIALDLSLPLGNWFSAGMTHQNGYTMANLSARKQFDEGTIRTVGANLSRAISGDTGDDKTLSGGAYAQFDARYASGTLNVNSAADGYVNTNLTANGSVGWQGKNIAASGRTDGNAGVIFNTGLEDDGQISAKINGRIFPLNGKRNYLPLSPYGRYEVELQNSKNSLDSYDIVSGRKSRLTLYPGNVAVIEPEVKQMVTVSGRIRAEDGTLLANARINNHIGRTRTDENGEFVMDVDKKYPTIDFRYSGNKTCEVALELNQARGAVWVGDVVCSGLSSWAAVTQTGEENES |  |  |  |  |  | 2.91 h |  |  |  |  |  |  |
| MAKHLFTSESVSEGHPDKIADQISDAVLDAILEQDPKARVACETYVKTGMVLVGGEITTSAWVDIEEITRNTVREIGYVHSDMGFDANSCAVLSAIGKQSPDINQGVDRADPLEQGAGDQGLMFGYATNETDVLMPAPITYAHRLVQRQAEVRKNGTLPWLRPDAKSQVTFQYDDGKIVGIDAVVLSTQHSEEIDQKSLQEAVMEEIIKPILPAEWLTSATKFFINPTGRFVIGGPMGDCGLTGRKIIVDTYGGMARHGGGAFSGKDPSKVDRSAAYAARYVAKNIVAAGLADRCEIQVSYAIGVAEPTSIMVETFGTEKVPSEQLTLLVREFFDLRPYGLIQMLDLLHPIYKETAAYGHFGREHFPWEKTDKAQLLRDAAGLK [P0A817] | 2.78 ± 0.62 h | 2.16 ± 0.45 h | 2.01 ± 0.14 h | 2.41 ± 0.18 h | 2.15 ± 0.17 h | 2.97 ± 0.16 h | 4.63 ± 0.68 h | 6.86 ± 0.4 h | 2.1 ± 0.1 h | 2.72 ± 0.053 h | 5.17 ± 0.096 h | 9.5 ± 0.32 h |
| MSEPLDLNQLAQKIKQWGLELGFQQVGITDTDLSESEPKLQAWLDKQYHGEMDWMARHGMLRARPHELLPGTLRVISVRMNYLPANAAFASTLKNPKLGYVSRYALGRDYHKLLRNRLKKLGEMIQQHCVSLNFRPFVDSAPILERPLAEKAGLGWTGKHSLILNREAGSFFFLGELLVDIPLPVDQPVEEGCGKCVACMTICPTGAIVEPYTVDARRCISYLTIELEGAIPEELRPLMGNRIYGCDDCQLICPWNRYSQLTTEEDFSPRKPLHAPELIELFAWSEEKFLKVTEGSAIRRIGHLRWLRNIAVALGNAPWDETILTALESRKGEHPLLDEHIAWAIAQQIERRNACIVEVQLPKKQRLVRVIEKGLPRDA | 5.59 ± 0.68 h |  |  | 2.85 ± 0.33 h | 1.41 h | > 4 h |  |  | 1.85 h |  |  | 3.79 h |
